From paper doi:10.1101/2019.12.17.880419
Like-named read-outs stand apart in the source and are kept apart here.

How the values were obtained:
Assay in all cases: ITC
[1] = biological target: T1, UHRF1 SRA (mouse, UniProt Q8VDF2 417-628)
T1 sequence: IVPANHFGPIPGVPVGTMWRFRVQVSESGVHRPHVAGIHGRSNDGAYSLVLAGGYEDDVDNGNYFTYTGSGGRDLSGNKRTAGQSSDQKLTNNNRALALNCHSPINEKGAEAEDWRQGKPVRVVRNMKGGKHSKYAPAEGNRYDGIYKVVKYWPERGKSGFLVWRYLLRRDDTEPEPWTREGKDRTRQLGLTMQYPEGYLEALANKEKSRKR

[2] = biological target: T1, UHRF1 SRA; remark: listed apart in the source
[3] = biological target: T1, UHRF1 SRA; remark: listed apart in the source
[4] = biological target: T1, UHRF1 SRA; remark: listed apart in the source

B1: hemi-mCG DNA (dsDNA)
DNA 1: GCAATCCGGTAG
DNA 2: CTACCGGATTGC
modifications: 5mC on one strand in CG context
[1]
  Kd: 640 ± 120 nM

B2: mCH DNA (dsDNA)
DNA 1: TCATCAGTGAT
DNA 2: TCACTGATGAC
modifications: 5mC in CH context
[2]
  Kd: 1160 ± 90 nM

B3: fully-mCHG DNA (ITC) (dsDNA)
DNA 1: TCACGCTGCGTGA
DNA 2: TCACGCTGCGTGA
modifications: 5mC on both strands in CHG context
[3]
  Kd: 1850 ± 60 nM

B4: fully-mCG DNA (dsDNA)
DNA 1: CAGCTCGAGCTG
DNA 2: CAGCTCGAGCTG
modifications: 5mC on both strands in CG context
[4]
  Kd: 4130 ± 90 nM
